Experimental findings from patent US8620595B2, “Methods for determining the retention of peptides in reverse phase chromatography using linear solvent strength theory” (University of Manitoba, priority 2010, dated 2013) are described below.

One series can be described thus: Determination of S from retention time shift Δ relative to P3 at two gradient slopes, nano-RP-HPLC MS of spiked tryptic digest. The following applies: experimental S value, LC-MS runs of model peptide mixture. The series is classed as physicochemical. The method, then: Proteins and protein digestion. Tryptic digests of two different protein mixtures were utilized. The “test peptide mixture” contained human proteins: albumin, transferrin, fibrinogen. The “model peptide mixture” contained bovine proteins: albumin, transferrin, fibrinogen, catalase. Equimolar mixtures of the proteins were prepared, reduced with DTT, alkylated with iodoacetamide and digested with sequencing-grade modified trypsin (Promega, Madison, Wis.). Prior to nano-LC MS/MS analysis, mixtures were diluted with buffer A (0.1% formic acid in water) and spiked with the 6 standard peptides P1-P6^24 for test mixture and the set of 11 model peptides (described elsewhere^23) for a model mixture. All dilutions were performed to provide an injection of ˜100 fmole of each component into the nanoRP-HPLC MS system.
Chromatography. All chromatographic experiments were conducted at a controlled temperature of 22-23° C. For isocratic measurement of the slope values, a micro-Agilent 1100 Series system (Agilent Technologies, Wilmington, Del.), was used with a 1 mm×100 mm 5 μm Luna C18(2) (Phenomenex, Torrance, Calif.) column and a UV detector operated at 214 nm. Both eluents A (water) and B (acetonitrile) contained 0.1% formic acid as ion-pairing modifier. Stock solutions of the 11 standard peptides (˜1 mg/ml) were prepared by dissolving each peptide in 1 ml of 0.1% FA in water or a 20% acetonitrile solution. Ten microliters of sample was injected. Individual peptides were diluted to provide ˜0.5-1 μg injection of each component using a 10 μl loop. The dead volume of the column and connecting tubings was determined by injecting a non-retained compound (water) and measuring the elution time of the negative peak at a 150 μL/min flow rate. Retention factors for isocratic elution were calculated using the formula: k=(tR−t0)/t0c; where tR is the retention time, t0 is the system (column and tubings) dead time, and t0c is the column dead time. Additional details of measuring S-values via constructing log k vs. φ plots are provided elsewhere.^24 The nano-LC MS/MS experiments were conducted using splitless Tempo LC system (Eksigent, Dublin, Calif.) with 20 μL sample injection via a 300 μm×5 mm PepMap100 (Dionex, Sunnyvale, Calif.) trap-column and a 100 μm×200 mm analytical column packed with 5 μm Luna C18(2) (Phenomenex, Torrance, Calif.). Tryptic digests of the mixtures were spiked with calibrating peptides (see Table 1) as described above, injected on the trap-column using buffer A as a carrier and separated using 0.1875, 0.375 and 0.75 percent acetonitrile per minute linear gradients starting from 0.5% acetonitrile at 500 nL/min flow rate. The composition of both eluents A and B was identical to one described above for normal-flow system. Gradient programs consisted of a 0.5-40% linear increase of buffer B in 213.2, 106.6 and 53.3 minutes, respectively. After each run the gradient columns were washed with 80% B for 3 minutes and equilibrated with the starting A:B ratio for 18 minutes.
Mass spectrometry. A QStar Elite mass spectrometer (Applied Biosystems, Foster City, Calif.) equipped with a MicrolonSpray II source was used in standard MS/MS information dependent acquisition (IDA) mode for LC-ESI analyses. Protein identification was performed using Protein Pilot 3.0 (Applied Biosystems, Foster City, Calif.) with a restricted database containing target protein sequences and the sequences of standard peptides. Retention times of identified species (peak maxima) were assigned manually.
These two ways of measurement have been combined to provide a highly accurate and fast way of determining S for an extensive sets of peptides (see FIG. 3). First, precise isocratic measurement of S is performed in normal flow conditions with UV detection for a set of synthetic “S-calibrating” peptides. […]
For NFSDVHPEYGSR, the “Slope (experimental)” value came out at 37.948.

As for CLQDGAGDVAFVK, the “Slope (experimental)” value turned out to be 31.382.

Regarding TVMENFVAFVDK, the “Slope (experimental)” value is 28.849.

Consider IQALLDK, for which the “Slope (experimental)” value amounted to 26.395.

With QAYPNLCQLCK, the “Slope (experimental)” value is reported as 32.399.

For FKDLGEEHFK, the “Slope (experimental)” value is 38.336.

On to AEFVEVTK, for which the “Slope (experimental)” value came to 29.046.

Take TYDSYLGDDYVR: the “Slope (experimental)” value is 31.66.

In the case of GDSVSQGTGLAPGSPR, the “Slope (experimental)” value was determined as 38.571.

In the case of CCTESLVNR, the “Slope (experimental)” value is 33.998.

Turning to LCALCAGDDQGLDK, the “Slope (experimental)” value was determined as 33.517.

For the substance VWPHGDYPLIPVGK, the “Slope (experimental)” value was found to be 34.183.

Turning to QFVSSSTTVNR, the “Slope (experimental)” value is 37.462.

In the case of LFAYPDTHR, the “Slope (experimental)” value is given as 31.897.

For the substance AAANFFSASCVPCADQSSFPK, the “Slope (experimental)” value was 35.1.

Take IPSKVDSALYLGSR: the “Slope (experimental)” value is recorded as 35.773.

On to LLGSLSLHAFR, for which the “Slope (experimental)” value is recorded as 31.94.

TPCTVTCNIPVVSGK: the “Slope (experimental)” value came out at 34.721.

Consider ILNKQQDDFGK, for which the “Slope (experimental)” value was 40.011.

As for THFSGDVQR, the “Slope (experimental)” value is given as 42.53.

For the substance MEDEAESLEDLGFK, the “Slope (experimental)” value came out at 29.603.

In the case of RAFALECIR, the “Slope (experimental)” value was 31.043.

On to QNQVQDNENWNEYSSHLEK, for which the “Slope (experimental)” value was determined as 40.065.

On to ESGLYFIRPLK, for which the “Slope (experimental)” value was 30.232.

For the substance YAAELHLVHWNTK, the “Slope (experimental)” value is on record as 36.188.

With TSDANINWNNLKDKK, the “Slope (experimental)” value is 39.525.

For LLLLLDFR, the “Slope (experimental)” value was 22.983.

As to CGLVPVLAENYK, the “Slope (experimental)” value is 27.604.

Take “EDLIWK [tryptic peptide detected in the model peptide mixture]”: the “Slope (experimental)” value amounted to 21.902.

IVNLR: the “Slope (experimental)” value is listed as 29.724.

CLASIAK: the “Slope (experimental)” value came out at 30.212.

With SMMEEIMK, the “Slope (experimental)” value worked out at 25.394.

As to LGAPSITCVR, the “Slope (experimental)” value amounted to 32.708.

IIPLNR: the “Slope (experimental)” value was 28.596.

Regarding LLGSLSLDAFR, the “Slope (experimental)” value is 28.402.

LAGGGSASSSAHAAAFR: the “Slope (experimental)” value worked out at 44.118.

ESPQTHYYAVAVVK: the “Slope (experimental)” value was 36.262.

For ETTVFENLPEK, the “Slope (experimental)” value was 29.323.

For the substance HLVDEPQNLIK, the “Slope (experimental)” value is listed as 35.894.

Regarding LAGGSASSADAAFR, the “Slope (experimental)” value is given as 34.509.

For the substance KVIEQVQR, the “Slope (experimental)” value was determined as 43.582.

With NLNREDFR, the “Slope (experimental)” value is listed as 36.957.

GGWTVIQNR: the “Slope (experimental)” value amounted to 26.957.

Take LASAAHFR: the “Slope (experimental)” value is on record as 38.571.

On to LVNELTEFAK, for which the “Slope (experimental)” value is reported as 27.906.

With AMTNLR, the “Slope (experimental)” value is on record as 32.841.

For the substance ECHLAQVPSHAVVAR, the “Slope (experimental)” value is given as 44.148.

For the substance FFSASCVPCIDR, the “Slope (experimental)” value turned out to be 32.333.

As for LLGGGSLSSSLDAAAFR, the “Slope (experimental)” value was determined as 32.333.

Turning to LSQKFPK, the “Slope (experimental)” value was 38.913.

As to YQLSVSK, the “Slope (experimental)” value worked out at 31.531.

Consider WCAIGHQER, for which the “Slope (experimental)” value came to 35.992.

For QEPERNECFLSHKDDSPDLPK, the “Slope (experimental)” value amounted to 45.147.

ILESGPFVSCVKK: the “Slope (experimental)” value was 34.299.

Turning to FLQEIYNSNSQK, the “Slope (experimental)” value is 30.666.

Regarding GSNFQLDQLQGR, the “Slope (experimental)” value was found to be 30.314.

Consider DAQLFIQK, for which the “Slope (experimental)” value was found to be 24.282.

For the substance TSSSTFQYITLLK, the “Slope (experimental)” value stood at 29.703.

For GYLAVAVVK, the “Slope (experimental)” value is given as 27.811.

Turning to YLYEIAR, the “Slope (experimental)” value is reported as 27.362.

On to IEILR, for which the “Slope (experimental)” value is 24.216.

Regarding TSTADYASFK, the “Slope (experimental)” value worked out at 30.833.

As to LLGGSLSSLDAAFR, the “Slope (experimental)” value is on record as 30.604.

As to YLTTLK, the “Slope (experimental)” value stood at 27.604.

On to EPISVSSQQMLK, for which the “Slope (experimental)” value amounted to 33.2.

Take VDLEDYK: the “Slope (experimental)” value is listed as 28.987.

For the substance MKGLIDEVDQDFTSR, the “Slope (experimental)” value stood at 33.2.

The same series, now with this note: experimental S, LC-MS runs of model peptide mixture, formic acid.
“DLLFK [tryptic peptide detected in the model peptide mixture]”: the “Slope (experimental)” value worked out at 18.223.

Regarding DSADGFLKIPSK, the “Slope (experimental)” value is 30.089.

With DKDDFFTR, the “Slope (experimental)” value came to 25.342.

For the substance HMDGYGSHTFK, the “Slope (experimental)” value is on record as 41.758.

With KANEGLTWNSLK, the “Slope (experimental)” value was 31.085.

For the substance DQTVIQNTDGNNNEAWAK, the “Slope (experimental)” value was 34.721.

As for VDSALYLGSR, the “Slope (experimental)” value stood at 27.122.

Take TGLAPEFAALGESGSSSSK: the “Slope (experimental)” value came out at 28.402.

TCVADESHAGCEK: the “Slope (experimental)” value was found to be 47.601.

Take HSTVFDNLPNPEDR: the “Slope (experimental)” value is 34.439.

As for VLNEEQR, the “Slope (experimental)” value turned out to be 40.229.

For GEADALNLDGGYIYTAGK, the “Slope (experimental)” value came to 31.382.

With ECVPNSNER, the “Slope (experimental)” value amounted to 44.66.

Take MVLETFGGDGHAR: the “Slope (experimental)” value worked out at 31.001.

GTGKECVPNSNER: the “Slope (experimental)” value is recorded as 48.911.

Turning to ETGWPFCSDEDWNTK, the “Slope (experimental)” value stood at 29.105.

For the substance EEGSVSSGTKQEFHTGK, the “Slope (experimental)” value is given as 48.449.

Turning to RHPEYAVSVLLR, the “Slope (experimental)” value was found to be 32.553.

As for DSLFNYQK, the “Slope (experimental)” value was found to be 24.58.

In the case of KYCGVPGEYWLGNDR, the “Slope (experimental)” value was found to be 33.065.

On to WCTISTHEANK, for which the “Slope (experimental)” value is 37.234.

Regarding SLHTLFGDELCK, the “Slope (experimental)” value was determined as 30.438.

For the substance INLLQK, the “Slope (experimental)” value is reported as 24.664.

For the substance KANEGLTWNSLKDK, the “Slope (experimental)” value worked out at 35.507.

KGSNFQLDQLQGR: the “Slope (experimental)” value turned out to be 33.883.

As for “DSALGFLR [tryptic peptide detected in the model peptide mixture]”, the “Slope (experimental)” value is recorded as 21.784.

With KQTALVELLK, the “Slope (experimental)” value is 27.642.

On to CGLVPVLAENRK, for which the “Slope (experimental)” value is reported as 30.745.

As for NCPDKFCLFK, the “Slope (experimental)” value stood at 28.518.

Turning to QDGSVDFGR, the “Slope (experimental)” value was determined as 28.518.

For ANEGLTWNSLKDK, the “Slope (experimental)” value was determined as 32.686.

Regarding LGGGGGGDFR, the “Slope (experimental)” value was determined as 31.043.

Turning to NYELLCGDNTRK, the “Slope (experimental)” value turned out to be 31.767.

Regarding APVDAFK, the “Slope (experimental)” value was 26.378.

As for FDEFFSAGCAPGSPR, the “Slope (experimental)” value is 28.654.

Regarding RLDGSLDFK, the “Slope (experimental)” value was determined as 29.845.

Turning to SEDGSDCGDADFDWHHTFPSR, the “Slope (experimental)” value worked out at 37.158.

HQLYIDETVK: the “Slope (experimental)” value amounted to 34.369.

Staying with this series, now noted: model peptide mixture (tryptic digest of bovine proteins), 0.75 and 0.1875% acetonitrile per minute gradients, formic acid, S from Δ vs. S curve of S-calibrating peptides.
“DLLFK [tryptic peptide detected in the model peptide mixture]”: the “experimental S-value” came out at 18.2.

In the case of “EDLIWK [tryptic peptide detected in the model peptide mixture]”, the “experimental S-value” amounted to 21.9.

In the case of “DSALGFLR [tryptic peptide detected in the model peptide mixture]”, the “experimental S-value” was 21.8.
